Substitutions are numbered along the chain they refer to.

Two proteins from patent US20110123511A1 (ICAHN SCHOOL OF MEDICINE AT MOUNT SINAI, published 2011) can be followed below.

This data set deals with the molecule itself. As to the kind of experiment: gel filtration chromatography (self-association, homodimer).

B1: vSET triple mutant KR(M)R-to-AA(M)A (aa 85-88) (enzyme)
chain: MFNDRVIVKKSPLGGYGVFARKSFEKGELVEECLCIVRHNDDWGTALEDYLFSRKNMSAMALGFGAIFNHSKDPNARHELTAGLAAMAIFTIKPIAIGEEITISYGDDYWLSRPRLTQN
notes: elutes as a dimer like the wild type; also called KR(M)R/AA(M)A
As for B1, the binding result was “binds”.

B2: recombinant wild-type vSET expressed in E. coli BL21 (enzyme)
chain: B1 chain with A85K, A86R, A88R
notes: also called hexa-histidine tagged vSET; not shown: tag in the
For B2, the binding result is on record as “binds”.
